Data: patent US20240191211A1, “BIOLUMINESCENCE-TRIGGERED PHOTOCATALYTIC LABELING” (Promega Corporation, priority 2022, published 2024)

Columns and labels:
[1] = Brightness and BRET efficiency to a bound HaloTag TMR-fluorescent ligand; format: biochemical; settings: versus HaloTag-LgBiT configuration, complemented with VS-HiBiT
Description: The efficiency of bioluminescence-triggered catalyst activation depends on the emission intensity of the luciferase energy donor, spectral overlap between luciferase emission and catalyst excitation, proximity between the luciferase and catalyst, and capacity of the complex to adopt a conformation favorable for efficient energy transfer between the two. First, the influence of the NanoLuc-HaloTag fusion orientation on the efficiency of bioluminescence resonance energy transfer (BRET) to a bound HaloTag TMR-fluorescent ligand was tested. To this end, fusions either untethered or tethered to a HaloTag TMR-fluorescent ligand were diluted in TBS+0.01% BSA to a final concentration of 6.6 nM and then treated with 10× fluorofurimazine at a final concentration of 20 M. Following 3 minutes incubation, raw luminescence (Total RLU) or filtered luminesces for donor (e.g., 450 nm/8 nm BP) and acceptor (600 nm LP) emissions, respectively were measured on a GloMax® Discover plate reader (Promega). BRET ratios were further calculated for each sample by dividing the acceptor emission value by its donor emission value. While both orientations delivered equivalent brightness one of them NanoLuc-HaloTag provided greater BRET efficiency (FIG. 16A), which is likely due to greater proximity between NanoLuc's substrate binding site and the bound fluorescent ligand. […]

VS-HiBiT peptide = test: Complementation affinity with VS-HiBiT peptide; format: binding; settings: versus HaloTag-LgBiT configuration
Description: Such configuration offers a modality agnostic approach for proximity between the photocatalytic complex and protein of interest genetically fused to HiBiT as well as greater spatial control over photocatalytic reactivity. First, the properties of the bioluminescent complementation reporter comprising VS-HiBiT peptide and either HaloTag-LgBiT or LgBiT-HaloTag were compared (FIG. 23 A-C). To determine complementation affinity, equal volumes of VS-HiBiT peptide serially diluted in TBS+0.01% BSA to final concentrations of 200-0 nM and HaloTag-LgBiT or LgBiT-HaloTag diluted in TBS+0.01% BSA to a final concentration of 0.2 nM were combined in wells of a white 96-well plate and mixed for 30 minutes. Following a 3-minutes treatment with either 10× furimazine or fluorofurimazine at a final concentration 20 M, bioluminescence was measured on a GloMax® Discover plate reader (Promega), and binding affinity (Kd) was derived from a saturation binding curve of luminescence against VS-HiBiT concentration (FIG. 23A). […] Following a 3-minutes treatment with either 10× furimazine or fluorofurimazine at a final concentration 20 M, raw luminescence (Total RLU; FIG. 23B) or filtered luminesces of donor (e.g., 450 nm/8 nm BP) and acceptor (600 nm LP) emissions were measured on a GloMax® Discover plate reader (Promega). […]

B1: VS-HiBiT/LgBiT-HaloTag: bioluminescent complementation reporter comprising VS-HiBiT peptide and LgBiT-HaloTag (protein)
chain: MVFTLEDFVGDWEQTAAYNLDQVLEQGGVSSLLQNLAVSVTPIQRIVRSGENALKIDIHVIIPYEGLSADQMAQIEEVFKVVYPVDDHHFKVILPYGTLVIDGVTPNMLNYFGRPYEGIAVFDGKKITVTGTLWNGNKIIDERLITPDGSMLFRVTINSMAEIGTGFPFDPHYVEVLGERMHYVDVGPRDGTPVLFLHGNPTSSYVWRNIIPHVAPTHRCIAPDLIGMGKSDKPDLGYFFDDHVRFMDAFIEALGLEEVVLVIHDWGSALGFHWAKRNPERVKGIAFMEFIRPIPTWDEWPEFARETFQAFRTTDVGRKLIIDQNVFIEGTLPMGVVRPLTEVEMDHYREPFLNPVDREPLWRFPNELPIAGEPANIVALVEEYMDWLHQSPVPKLLFWGTPGVLIPPAEAARLAKSLPNCKAVDIGPGLNLLQEDNPDLIGSEIARWLSTLEISG
modifications: left off: large carriers
BRET efficiency, fold greater [1]: 1.5-2 fold
complementation affinity, fold higher (VS-HiBiT peptide): 3 fold
